The text below walks through data of article PMC5639367, “Structure‐Guided Design of Peptides as Tools to Probe the Protein–Protein Interaction between Cullin‐2 and Elongin BC Substrate Adaptor in Cullin RING E3 Ubiquitin Ligases” (Chemmedchem, 2017).

Sequence of peptide C (8-mer Cul2 peptide, Leu3 replaced by phenylalanine) (Q13617 whole entry, looked up, tested part not stated): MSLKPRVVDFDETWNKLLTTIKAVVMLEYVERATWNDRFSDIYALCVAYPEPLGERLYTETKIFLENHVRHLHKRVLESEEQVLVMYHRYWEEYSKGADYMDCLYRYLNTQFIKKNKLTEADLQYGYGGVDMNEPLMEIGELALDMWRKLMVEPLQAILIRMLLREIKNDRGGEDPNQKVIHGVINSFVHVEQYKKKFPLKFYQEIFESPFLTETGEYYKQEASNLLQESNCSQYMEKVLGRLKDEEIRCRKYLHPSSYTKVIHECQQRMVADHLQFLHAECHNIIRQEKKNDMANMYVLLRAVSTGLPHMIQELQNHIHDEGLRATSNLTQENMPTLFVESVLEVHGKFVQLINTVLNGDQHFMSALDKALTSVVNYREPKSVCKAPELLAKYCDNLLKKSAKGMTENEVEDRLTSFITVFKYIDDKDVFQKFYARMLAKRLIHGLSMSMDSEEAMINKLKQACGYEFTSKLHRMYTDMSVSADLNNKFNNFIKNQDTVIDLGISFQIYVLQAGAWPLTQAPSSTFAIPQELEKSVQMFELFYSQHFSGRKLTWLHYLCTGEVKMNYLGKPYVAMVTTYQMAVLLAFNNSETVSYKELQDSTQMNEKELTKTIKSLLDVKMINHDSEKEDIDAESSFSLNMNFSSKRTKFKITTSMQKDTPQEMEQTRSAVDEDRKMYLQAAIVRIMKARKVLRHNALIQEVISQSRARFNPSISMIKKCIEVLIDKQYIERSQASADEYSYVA
Sequence of peptide D (8-mer Cul2 peptide, Leu3 replaced by tyrosine) (Q13617 whole entry, looked up, tested part not stated): as above

The target of this experiment is VBC ternary complex (pVHL, Elongin B, Elongin C) (UniProt P40337). Kind of experiment: BLI; biotinylated VBC (25 ug/mL) immobilised on Super Streptavidin biosensors, peptides titrated; Octet RED384; 25 °C; 20 mM HEPES pH 7.6, 100 mM NaCl, 1 mM DTT, 0.02 % Tween-20; reference tips subtracted; 1:1 model.
“peptide C (8-mer Cul2 peptide, Leu3 replaced by phenylalanine) (from UniProt Q13617 1-8)” had an equilibrium dissociation constant (Kd) of 3100 µM.
“peptide D (8-mer Cul2 peptide, Leu3 replaced by tyrosine) (from UniProt Q13617 1-8)” displayed a Kd of 7400 µM. Compared with the last substance, the Kd is about 2.4-fold higher.
The substance “peptide F (8-mer Cul2 peptide, Leu3 replaced by norvaline) (from UniProt Q13617 1-8)” registered a Kd of 1900 µM.
“peptide G (8-mer Cul2 peptide, Leu3 replaced by tert-butylglycine) (from UniProt Q13617 1-8)” yielded a Kd of 900 µM.
In turn, “peptide H (8-mer Cul2 peptide, Leu3 replaced by phenylglycine) (from UniProt Q13617 1-8)” returned a Kd of 2100 µM.
Next, “peptide I (8-mer Cul2 peptide, Leu3 replaced by cyclohexhylglycine) (from UniProt Q13617 1-8)”: 8900 µM; “peptide K (8-mer Cul2 peptide, Leu3 replaced by thioproline) (from UniProt Q13617 1-8)”: 2200 µM.
